According to article PMC7714071, “Interaction of amyloid beta with humanin and acetylcholinesterase is modulated by ATP” (FEBS Open Bio, 2020):

Assays:
[1] = test system: H1299 cells; details: cited from earlier work
[2] = test system: Aβ40; details: cited from earlier work
Source text: Almost all types of cells produce amyloid beta (Aβ), a peptide well recognized for its role in the development and progression of different stages of Alzheimer's disease (AD). The Aβ peptide is ~ 4 kDa and derived from the sequential processing of the higher molecular weight amyloid precursor protein by two membrane‐bound endoproteases, β‐ and γ‐secretase. Different C‐terminal Aβ heterogeneity results from processing by γ‐secretase, where Aβ40 represents the most abundant isoform (~ 90%) as compared to Aβ42 (~ 10%). Self‐assembled Aβ40/42 peptides into amyloid fib ... || Humanin (HN) is a secreted 21‐ to 24‐amino acid mitochondrial‐derived peptide. Certain amino acid residues in HN have been identified to be involved in different functions, including binding to Aβ [55, 56]. […] HN was identified previously as a binding partner of Aβ, likely modulating its aggregation pathways and counteracting its deleterious effects. […] The specific epitopes at the binding interface between HN and Aβ40 were identified, by proteolytic epitope excision and extraction in addition to affinity–mass spectrometric data analysis, to be HN (5–15) and Aβ (17–28). […] Inhibiting the 17–28 region of Aβ reduced aggregation of the neurotoxic amyloid fibrils and related cytotoxicity in SH‐SY5Y, a human neuroblastoma cell ... || (+ 1 further places)

[3] = test system: Aβ42; experiment: ELISA, binding of biotinylated-HN to immobilised Aβ42; details: Aβ 100 nM on wells, biotinylated-HN 300 nM, increasing HS; three independent assays; Fig. 2B
Description: ELISAs were carried out as we previously reported. Nunc MaxiSorp 96‐well flat bottom plate (Thermo Fisher) wells were coated with samples as indicated. The plates were incubated overnight at 4 °C on a shaker to allow binding of the samples to the plate wells. After the incubation, the wells were washed 4× with TBST, filled with 400 µL blocking buffer (110 mM KCl, 5 mM NaHCO3, 5 mM MgCl2, 1 mM EGTA, 0.1 mM CaCl2, 20 mM HEPES, 1% BSA, pH 7.4), and incubated with shaking overnight at 4 °C. The wells were then washed 4× with TBST, and 100 µL of sample at the desired concentration was added to each well and incubated with shaking overnight at 4 °C. TBST was then used to wash the wells 4× before proceeding in one of two ways: (a) biotinylated samples were analyzed by adding 100 µL streptavidin–HRP conjugate in TBST (1 : 2500 dilution) to the samples followed by incubation for 3 h at RT on a shaker, or (b) samples without biotin were analyzed by adding 100 µL TBST containing the primary antibody as per the manufacturer's recommendation, incubating for 3 h at RT on a shaker, followed by washing the wells 4× with TBST. […] The reaction was stopped with 100 µL 2 M H2SO4 after incubating at RT for 0.5–15 min, resulting in a yellow color change, measured by absorbance at 450 nm. […] Statistical analysis was determined by the […] […] Data were expressed as the mean ± SD. […]

Substance | cell viability upon ID of HN ([1]; HN immunodepleted from H1299 conditioned media) | apoptosis upon ID of HN ([1]; HN-ID H1299 media) | morphology of Aβ40 [2] | effect of HS on binding of HN to Aβ42 [3]
Humanin [HN] | diminished cell viability | increased apoptosis | from fibrillary to amorphous | –
heparan sulfate [HS] | – | – | – | No effects
